Here are results for four molecules from patent US9284543B2, “Neutral active soluble truncated PH20 polypeptides and uses thereof” (Halozyme, Inc., priority 2008, dated 2016).

Data set [1] has as its system CHO-S cells. In words: PI-PLC treatment of expressing cells, Western blot of media and cells. It is filed as cell-based, Chinese Hamster. The conditions noted are these: cells incubated with PI-PLC for 2 hours. The method, boiled down: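 CHO-S cells transiently expressing rHuPH20 or C-terminal truncation mutants were treated with PI-PLC (0.5 units/well, or 3.0 units/dish in serum/detergent-free medium) for 2 h at 37 °C after 48–72 h expression. Untreated and treated media and cell extracts were analysed separately by Western blot for PH20.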
Background: A western blot detects proteins with antibodies after separation by electrophoresis.

Data set [2] can be described thus: Microtiter hyaluronidase activity assay with biotinylated-hyaluronic acid. It is filed as biochemical. The conditions noted are these: 72 hour post transfection supernatant.
The nature of data set [3]: Triton X-114 partition assay. Format: physicochemical. As to conditions: partition into aqueous phase of Triton X-114 at 37° C. The protocol: Solubility of a hyaluronidase can be determined by any method known to one of the skill in the art. One method for determining solubility is by detergent partitioning. […] For example, the solubility of the PH20 polypeptides described herein is assessed as described in Example 4. Membrane-anchored hyaluronidases, such as lipid-anchored hyaluronidases, including GPI-anchored hyaluronidases, will partition into the detergent-rich phase, but will partition into the detergent-poor or aqueous phase following treatment with Phospholipase C. Phospholipase C is an enzyme that cleaves the […] found in GPI-anchored proteins. Treatment with PLC will cause release of GPI-linked proteins from the outer cell membrane.
The samples were heated to 37° C. for 3 minutes to induce phase separation and centrifuged for 3 min at 4000 g at room temperature. Aqueous and detergent phases were removed for SDS-PAGE analysis and Western blotting. Rabbit anti-PH20 IgG (0.5 μg/mL) was used as the primary antibody and HRP-conjugated goat anti-Rabbit IgG (0.1 ng/mL, Cat#DC03L, EMD) was used as the secondary antibody. Full length human PH20, which partitions strongly into the detergent phase, was used as a control.

Data set [4] has as its system CHO-S cells. In words: Western blot analysis of PH20 expression in media and cells after transient expression. It is filed as cell-based, Chinese Hamster. The conditions noted are these: media versus cells. The method, boiled down: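 PH20 expression and solubility were judged by anti-PH20 Western blot of non-reduced media and cell fractions, with expression shown by a ~66 kDa band. Samples came from CHO-S cells transiently transfected (GeneJuice) with mutant PH20-HZ24 DNA and cultured 48-72 h. GPI-anchored mutants were cleaved with PI-PLC to release soluble protein.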

B1: SPAM1-FIVS: C-terminally truncated human PH20, precursor 497 aa (SEQ ID NO:8), mature 462 aa (SEQ ID NO:60) (protein, listed as Homo sapiens)
chain 1: MGVLKFKHIFFRSFVKSSGVSQIVFTFLLIPCCLTLNFRAPPVIPNVPFLWAWNAPSEFCLGKFDEPLDMSLFSFIGSPRINATGQGVTIFYVDRLGYYPYIDSITGVTVNGGIPQKISLQDHLDKAKKDITFYMPVDNLGMAVIDWEEWRPTWARNWKPKDVYKNRSIELVQQQNVQLSLTEATEKAKQEFEKAGKDFLVETIKLGKLLRPNHLWGYYLFPDCYNHHYKKPGYNGSCFNVEIKRNDDLSWLWNESTALYPSIYLNTQQSPVAATLYVRNRVREAIRVSKIPDAKSPLPVFAYTRIVFTDQVLKFLSQDELVYTFGETVALGASGIVIWGTLSIMRSMKSCLLLDNYMETILNPYIINVTLAAKMCSQVLCQEQGVCIRKNWNSSDYLHLNPDNFAIQLEKGGKFTVRGKPTLEDLEQFSEKFYCSCYSTLSCKEKADVKDTDAVDVCIADGVCIDAFLKPPMETEEPQIFYNASPSTLSATMFIVS
chain 2: LNFRAPPVIPNVPFLWAWNAPSEFCLGKFDEPLDMSLFSFIGSPRINATGQGVTIFYVDRLGYYPYIDSITGVTVNGGIPQKISLQDHLDKAKKDITFYMPVDNLGMAVIDWEEWRPTWARNWKPKDVYKNRSIELVQQQNVQLSLTEATEKAKQEFEKAGKDFLVETIKLGKLLRPNHLWGYYLFPDCYNHHYKKPGYNGSCFNVEIKRNDDLSWLWNESTALYPSIYLNTQQSPVAATLYVRNRVREAIRVSKIPDAKSPLPVFAYTRIVFTDQVLKFLSQDELVYTFGETVALGASGIVIWGTLSIMRSMKSCLLLDNYMETILNPYIINVTLAAKMCSQVLCQEQGVCIRKNWNSSDYLHLNPDNFAIQLEKGGKFTVRGKPTLEDLEQFSEKFYCSCYSTLSCKEKADVKDTDAVDVCIADGVCIDAFLKPPMETEEPQIFYNASPSTLSATMFIVS
modifications: HuPH20 precursor 1-497; esHuPH20 36-497
B1: the “Expressed in Media Following Addition of PI-PLC” value (shortened to “Expressed … of PI-PLC”) in data set [1] is given as “Initially in media”. For the same molecule, in data set [2] (Table 6), the “pH 5.5 Activity” value came to 0.216 Units/ml and the “pH 7.4 Activity” value is given as 0.1755 Units/ml. In addition, in data set [2] (Table 6A), the “pH 5.5 Activity” value amounted to 0.162 Units/ml and the “pH 7.4 Activity” value was 0.365 Units/ml. Also, in data set [3], the Soluble result is “YES”. In addition, the “Expressed in Media” value in data set [4] was “YES”.

B2: SPAM1-TLSA: C-terminally truncated human PH20, precursor 491 aa (SEQ ID NO:11), mature 456 aa (SEQ ID NO:63) (protein, listed as Homo sapiens)
chain 1: MGVLKFKHIFFRSFVKSSGVSQIVFTFLLIPCCLTLNFRAPPVIPNVPFLWAWNAPSEFCLGKFDEPLDMSLFSFIGSPRINATGQGVTIFYVDRLGYYPYIDSITGVTVNGGIPQKISLQDHLDKAKKDITFYMPVDNLGMAVIDWEEWRPTWARNWKPKDVYKNRSIELVQQQNVQLSLTEATEKAKQEFEKAGKDFLVETIKLGKLLRPNHLWGYYLFPDCYNHHYKKPGYNGSCFNVEIKRNDDLSWLWNESTALYPSIYLNTQQSPVAATLYVRNRVREAIRVSKIPDAKSPLPVFAYTRIVFTDQVLKFLSQDELVYTFGETVALGASGIVIWGTLSIMRSMKSCLLLDNYMETILNPYIINVTLAAKMCSQVLCQEQGVCIRKNWNSSDYLHLNPDNFAIQLEKGGKFTVRGKPTLEDLEQFSEKFYCSCYSTLSCKEKADVKDTDAVDVCIADGVCIDAFLKPPMETEEPQIFYNASPSTLSA
chain 2: LNFRAPPVIPNVPFLWAWNAPSEFCLGKFDEPLDMSLFSFIGSPRINATGQGVTIFYVDRLGYYPYIDSITGVTVNGGIPQKISLQDHLDKAKKDITFYMPVDNLGMAVIDWEEWRPTWARNWKPKDVYKNRSIELVQQQNVQLSLTEATEKAKQEFEKAGKDFLVETIKLGKLLRPNHLWGYYLFPDCYNHHYKKPGYNGSCFNVEIKRNDDLSWLWNESTALYPSIYLNTQQSPVAATLYVRNRVREAIRVSKIPDAKSPLPVFAYTRIVFTDQVLKFLSQDELVYTFGETVALGASGIVIWGTLSIMRSMKSCLLLDNYMETILNPYIINVTLAAKMCSQVLCQEQGVCIRKNWNSSDYLHLNPDNFAIQLEKGGKFTVRGKPTLEDLEQFSEKFYCSCYSTLSCKEKADVKDTDAVDVCIADGVCIDAFLKPPMETEEPQIFYNASPSTLSA
modifications: HuPH20 precursor 1-491; esHuPH20 36-491
Regarding B2, in data set [1], the “Expressed … of PI-PLC” value was “Initially in media”. For the same molecule, in data set [2] (Table 6), the “pH 5.5 Activity” value is given as 0.5625 Units/ml and the “pH 7.4 Activity” value is 0.3645 Units/ml. In addition, in data set [2] (Table 6A), the “pH 5.5 Activity” value came out at 0.729 Units/ml and the “pH 7.4 Activity” value worked out at 0.851 Units/ml. In addition, the Soluble entry in data set [3] was “YES”. In addition, the “Expressed in Media” value in data set [4] is given as “YES”.

B3: SPAM1-TMFI: C-terminally truncated human PH20, precursor 495 aa (SEQ ID NO:9), mature 460 aa (SEQ ID NO:61) (protein, listed as Homo sapiens)
chain 1: MGVLKFKHIFFRSFVKSSGVSQIVFTFLLIPCCLTLNFRAPPVIPNVPFLWAWNAPSEFCLGKFDEPLDMSLFSFIGSPRINATGQGVTIFYVDRLGYYPYIDSITGVTVNGGIPQKISLQDHLDKAKKDITFYMPVDNLGMAVIDWEEWRPTWARNWKPKDVYKNRSIELVQQQNVQLSLTEATEKAKQEFEKAGKDFLVETIKLGKLLRPNHLWGYYLFPDCYNHHYKKPGYNGSCFNVEIKRNDDLSWLWNESTALYPSIYLNTQQSPVAATLYVRNRVREAIRVSKIPDAKSPLPVFAYTRIVFTDQVLKFLSQDELVYTFGETVALGASGIVIWGTLSIMRSMKSCLLLDNYMETILNPYIINVTLAAKMCSQVLCQEQGVCIRKNWNSSDYLHLNPDNFAIQLEKGGKFTVRGKPTLEDLEQFSEKFYCSCYSTLSCKEKADVKDTDAVDVCIADGVCIDAFLKPPMETEEPQIFYNASPSTLSATMFI
chain 2: LNFRAPPVIPNVPFLWAWNAPSEFCLGKFDEPLDMSLFSFIGSPRINATGQGVTIFYVDRLGYYPYIDSITGVTVNGGIPQKISLQDHLDKAKKDITFYMPVDNLGMAVIDWEEWRPTWARNWKPKDVYKNRSIELVQQQNVQLSLTEATEKAKQEFEKAGKDFLVETIKLGKLLRPNHLWGYYLFPDCYNHHYKKPGYNGSCFNVEIKRNDDLSWLWNESTALYPSIYLNTQQSPVAATLYVRNRVREAIRVSKIPDAKSPLPVFAYTRIVFTDQVLKFLSQDELVYTFGETVALGASGIVIWGTLSIMRSMKSCLLLDNYMETILNPYIINVTLAAKMCSQVLCQEQGVCIRKNWNSSDYLHLNPDNFAIQLEKGGKFTVRGKPTLEDLEQFSEKFYCSCYSTLSCKEKADVKDTDAVDVCIADGVCIDAFLKPPMETEEPQIFYNASPSTLSATMFI
modifications: HuPH20 precursor 1-495; esHuPH20 36-495
Consider B3, for which the “Expressed … of PI-PLC” value in data set [1] is given as “Initially in media”. In addition, in data set [2] (Table 6), the “pH 5.5 Activity” value was 0.612 Units/ml and the “pH 7.4 Activity” value is 0.45 Units/ml. Besides, in data set [2] (Table 6A), the “pH 5.5 Activity” value is recorded as 0.770 Units/ml and the “pH 7.4 Activity” value was determined as 0.689 Units/ml. For the same molecule, the Soluble entry in data set [3] is “YES”. Further, in data set [4], the “Expressed in Media” value was “YES”.

B4: SPAM1-SATM: C-terminally truncated human PH20, precursor 493 aa (SEQ ID NO:10), mature 458 aa (SEQ ID NO:62) (protein, listed as Homo sapiens)
chain 1: MGVLKFKHIFFRSFVKSSGVSQIVFTFLLIPCCLTLNFRAPPVIPNVPFLWAWNAPSEFCLGKFDEPLDMSLFSFIGSPRINATGQGVTIFYVDRLGYYPYIDSITGVTVNGGIPQKISLQDHLDKAKKDITFYMPVDNLGMAVIDWEEWRPTWARNWKPKDVYKNRSIELVQQQNVQLSLTEATEKAKQEFEKAGKDFLVETIKLGKLLRPNHLWGYYLFPDCYNHHYKKPGYNGSCFNVEIKRNDDLSWLWNESTALYPSIYLNTQQSPVAATLYVRNRVREAIRVSKIPDAKSPLPVFAYTRIVFTDQVLKFLSQDELVYTFGETVALGASGIVIWGTLSIMRSMKSCLLLDNYMETILNPYIINVTLAAKMCSQVLCQEQGVCIRKNWNSSDYLHLNPDNFAIQLEKGGKFTVRGKPTLEDLEQFSEKFYCSCYSTLSCKEKADVKDTDAVDVCIADGVCIDAFLKPPMETEEPQIFYNASPSTLSATM
chain 2: LNFRAPPVIPNVPFLWAWNAPSEFCLGKFDEPLDMSLFSFIGSPRINATGQGVTIFYVDRLGYYPYIDSITGVTVNGGIPQKISLQDHLDKAKKDITFYMPVDNLGMAVIDWEEWRPTWARNWKPKDVYKNRSIELVQQQNVQLSLTEATEKAKQEFEKAGKDFLVETIKLGKLLRPNHLWGYYLFPDCYNHHYKKPGYNGSCFNVEIKRNDDLSWLWNESTALYPSIYLNTQQSPVAATLYVRNRVREAIRVSKIPDAKSPLPVFAYTRIVFTDQVLKFLSQDELVYTFGETVALGASGIVIWGTLSIMRSMKSCLLLDNYMETILNPYIINVTLAAKMCSQVLCQEQGVCIRKNWNSSDYLHLNPDNFAIQLEKGGKFTVRGKPTLEDLEQFSEKFYCSCYSTLSCKEKADVKDTDAVDVCIADGVCIDAFLKPPMETEEPQIFYNASPSTLSATM
modifications: HuPH20 precursor 1-493; esHuPH20 36-493
In the case of B4, the “Expressed … of PI-PLC” value in data set [1] is listed as “Initially in media”. In data set [2] (Table 6), the “pH 5.5 Activity” value was determined as 0.7335 Units/ml and the “pH 7.4 Activity” value is recorded as 0.5715 Units/ml. In data set [2] (Table 6A), the “pH 5.5 Activity” value was 0.851 Units/ml and the “pH 7.4 Activity” value worked out at 0.689 Units/ml. The Soluble entry in data set [3] is reported as “YES”. In data set [4], the “Expressed in Media” value is “YES”.
